In patent US20240141072A1 (published 2024):

Legend:
[1] = molecular target: DH18 anti-DLL3 trispecific protein; test: Octet BLI, DLL3-Fc on anti-human Fc tips, single 50 nM
Experimental: (§1) Using conditioned media containing known concentrations of anti-DLL3 trispecific proteins, the binding affinities of the anti-DLL3 trispecific proteins toward human and cynomolgus monkey DLL3 proteins were measured, using a method where the DLL3 proteins were expressed as human IgG1-Fc fusions and the measurements were carried out using an Octet instrument with anti-human Fc tips.

[2] = molecular target: DH10 anti-DLL3 trispecific protein; test: as above
Experimental: as §1

[3] = molecular target: DH2 anti-DLL3 trispecific protein; test: as above
Experimental: as §1

[4] = molecular target: DH82 anti-DLL3 trispecific protein; test: as above
Experimental: as §1

[5] = molecular target: DH29 anti-DLL3 trispecific protein; test: as above
Experimental: as §1

[6] = molecular target: DH51 anti-DLL3 trispecific protein; test: as above
Experimental: as §1

[7] = molecular target: DH43 anti-DLL3 trispecific protein; test: as above
Experimental: as §1

[8] = molecular target: DH12 anti-DLL3 trispecific protein; test: as above
Experimental: as §1

[9] = molecular target: DH83 anti-DLL3 trispecific protein; test: as above
Experimental: as §1

[10] = molecular target: DH5 anti-DLL3 trispecific protein; test: as above
Experimental: as §1

[11] = molecular target: DH45 anti-DLL3 trispecific protein; test: as above
Experimental: as §1

[12] = molecular target: DH11 anti-DLL3 trispecific protein; test: as above
Experimental: as §1

[13] = molecular target: DH22 anti-DLL3 trispecific protein; test: as above
Experimental: as §1

[14] = molecular target: DH17 anti-DLL3 trispecific protein; test: as above
Experimental: as §1

[15] = molecular target: DH6 anti-DLL3 trispecific protein; test: as above
Experimental: as §1

[16] = molecular target: DH89 anti-DLL3 trispecific protein; test: as above
Experimental: as §1

[17] = molecular target: DH1 anti-DLL3 trispecific protein; test: as above
Experimental: as §1

[18] = molecular target: DH61 anti-DLL3 trispecific protein; test: as above
Experimental: as §1

[19] = molecular target: DH27 anti-DLL3 trispecific protein; test: as above
Experimental: as §1

[20] = molecular target: DH3 anti-DLL3 trispecific protein; test: as above
Experimental: as §1

[21] = molecular target: DH92 anti-DLL3 trispecific protein; test: as above
Experimental: as §1

[22] = molecular target: DH94 anti-DLL3 trispecific protein; test: as above
Experimental: as §1

[23] = molecular target: DH38 anti-DLL3 trispecific protein; test: as above
Experimental: as §1

[24] = molecular target: DH42 anti-DLL3 trispecific protein; test: as above
Experimental: as §1

[25] = molecular target: DH56 anti-DLL3 trispecific protein; test: as above
Experimental: as §1

[26] = molecular target: DH80 anti-DLL3 trispecific protein; test: as above
Experimental: as §1

[27] = molecular target: DH23 anti-DLL3 trispecific protein; test: as above
Experimental: as §1

[28] = molecular target: DH67 anti-DLL3 trispecific protein; test: as above
Experimental: as §1

[29] = molecular target: DH15 anti-DLL3 trispecific protein; test: as above
Experimental: as §1

[30] = molecular target: DH70 anti-DLL3 trispecific protein; test: as above
Experimental: as §1

[31] = molecular target: DH54 anti-DLL3 trispecific protein; test: as above
Experimental: as §1

[32] = molecular target: DH69 anti-DLL3 trispecific protein; test: as above
Experimental: as §1

[33] = molecular target: DH84 anti-DLL3 trispecific protein; test: as above
Experimental: as §1

[34] = molecular target: DH58 anti-DLL3 trispecific protein; test: as above
Experimental: as §1

[35] = molecular target: T1, anti-DLL3 trispecific protein containing the parental DLL3 binder DH6; test: Octet BLI; biotinylated purified CHO trispecific on streptavidin tips; 60, 20, 6.67, 2.22 nM
T1 construct: trispecific, one chain

[36] = molecular target: T2, anti-DLL3 trispecific protein with DLL3 binding domain 51G10; test: as above
T2 construct: trispecific, one chain

[37] = molecular target: T3, anti-DLL3 trispecific protein with DLL3 binding domain 52D04; test: as above
T3 construct: trispecific, one chain; same domain order as the TAC protein m79; also called 52D4

[38] = molecular target: T4, anti-DLL3 trispecific protein with DLL3 binding domain 52C04; test: as above
T4 construct: trispecific, one chain; also called 52C4

[39] = molecular target: T5, anti-DLL3 trispecific protein with DLL3 binding sequence 51X5; test: as above
T5 construct: trispecific, one chain

[40] = molecular target: T6, anti-DLL3 trispecific protein with DLL3 binding domain 51G02; test: as above
T6 construct: trispecific, one chain; also called 51G2

[41] = molecular target: T7, anti-DLL3 trispecific protein with DLL3 binding domain 51H05; test: as above
T7 construct: trispecific, one chain; also called 51H5

[42] = molecular target: T8, anti-DLL3 trispecific protein with DLL3 binding domain 52B01; test: as above
T8 construct: trispecific, one chain; also called 52B1

[43] = molecular target: T9, anti-DLL3 trispecific protein with DLL3 binding domain 51F03; test: as above
T9 construct: trispecific, one chain; also called 51F3

[44] = molecular target: T10, anti-DLL3 trispecific protein with DLL3 binding domain 51A05; test: as above
T10 construct: trispecific, one chain; also called 51A5
T10 sequence (chain, as listed by the source): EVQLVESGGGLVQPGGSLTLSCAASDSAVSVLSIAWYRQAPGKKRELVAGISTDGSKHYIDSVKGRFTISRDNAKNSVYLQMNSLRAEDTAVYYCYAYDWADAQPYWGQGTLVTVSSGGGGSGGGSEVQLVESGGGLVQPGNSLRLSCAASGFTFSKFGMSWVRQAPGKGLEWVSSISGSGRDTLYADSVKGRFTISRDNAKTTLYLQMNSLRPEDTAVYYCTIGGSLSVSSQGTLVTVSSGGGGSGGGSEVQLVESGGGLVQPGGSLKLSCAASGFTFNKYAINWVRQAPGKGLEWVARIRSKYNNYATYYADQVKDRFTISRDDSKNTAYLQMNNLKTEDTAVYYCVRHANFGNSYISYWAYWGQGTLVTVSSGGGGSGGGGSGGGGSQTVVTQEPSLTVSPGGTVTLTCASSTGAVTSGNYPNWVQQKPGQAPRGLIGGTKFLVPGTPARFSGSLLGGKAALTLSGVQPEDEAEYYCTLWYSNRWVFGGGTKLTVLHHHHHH

T8 sequence (chain, as listed by the source): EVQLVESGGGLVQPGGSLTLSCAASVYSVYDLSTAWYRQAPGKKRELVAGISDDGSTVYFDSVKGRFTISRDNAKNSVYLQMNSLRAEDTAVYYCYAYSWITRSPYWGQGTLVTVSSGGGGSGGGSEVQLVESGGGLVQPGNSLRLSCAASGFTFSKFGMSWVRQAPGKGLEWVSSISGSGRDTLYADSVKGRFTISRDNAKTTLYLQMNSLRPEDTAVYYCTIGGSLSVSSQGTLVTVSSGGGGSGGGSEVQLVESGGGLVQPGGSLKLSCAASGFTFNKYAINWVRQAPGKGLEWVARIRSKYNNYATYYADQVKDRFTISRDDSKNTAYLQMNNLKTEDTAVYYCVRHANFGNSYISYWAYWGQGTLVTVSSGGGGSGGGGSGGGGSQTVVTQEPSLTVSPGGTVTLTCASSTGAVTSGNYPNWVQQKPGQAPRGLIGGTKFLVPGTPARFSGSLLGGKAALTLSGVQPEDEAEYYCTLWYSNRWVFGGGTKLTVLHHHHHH
T2 sequence (chain, as listed by the source): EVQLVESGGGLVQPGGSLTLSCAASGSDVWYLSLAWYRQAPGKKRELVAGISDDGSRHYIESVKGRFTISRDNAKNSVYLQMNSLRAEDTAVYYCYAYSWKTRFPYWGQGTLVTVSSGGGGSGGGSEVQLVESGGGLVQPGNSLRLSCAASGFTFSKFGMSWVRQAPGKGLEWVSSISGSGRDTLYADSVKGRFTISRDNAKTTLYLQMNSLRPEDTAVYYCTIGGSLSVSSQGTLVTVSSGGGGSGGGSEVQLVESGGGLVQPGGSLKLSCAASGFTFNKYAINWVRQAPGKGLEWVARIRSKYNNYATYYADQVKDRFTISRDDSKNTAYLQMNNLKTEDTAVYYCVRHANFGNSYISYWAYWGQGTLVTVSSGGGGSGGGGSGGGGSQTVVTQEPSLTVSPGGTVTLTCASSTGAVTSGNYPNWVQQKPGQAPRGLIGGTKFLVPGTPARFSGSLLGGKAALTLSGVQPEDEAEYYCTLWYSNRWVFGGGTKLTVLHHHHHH
T4 sequence (chain, as listed by the source): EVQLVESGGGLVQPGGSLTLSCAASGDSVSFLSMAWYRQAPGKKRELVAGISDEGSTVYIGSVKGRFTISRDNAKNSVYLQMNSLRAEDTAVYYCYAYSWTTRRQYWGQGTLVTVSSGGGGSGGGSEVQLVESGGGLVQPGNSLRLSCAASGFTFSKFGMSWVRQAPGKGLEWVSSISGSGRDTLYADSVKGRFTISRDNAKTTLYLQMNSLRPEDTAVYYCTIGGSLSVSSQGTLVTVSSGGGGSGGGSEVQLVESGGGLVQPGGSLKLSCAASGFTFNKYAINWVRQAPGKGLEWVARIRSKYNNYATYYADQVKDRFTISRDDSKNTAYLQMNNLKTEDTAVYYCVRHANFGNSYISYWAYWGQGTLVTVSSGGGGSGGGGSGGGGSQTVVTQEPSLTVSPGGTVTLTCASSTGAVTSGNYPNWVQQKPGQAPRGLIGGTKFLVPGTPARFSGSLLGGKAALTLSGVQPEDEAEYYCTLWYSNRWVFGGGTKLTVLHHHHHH
T1 sequence (chain, as listed by the source): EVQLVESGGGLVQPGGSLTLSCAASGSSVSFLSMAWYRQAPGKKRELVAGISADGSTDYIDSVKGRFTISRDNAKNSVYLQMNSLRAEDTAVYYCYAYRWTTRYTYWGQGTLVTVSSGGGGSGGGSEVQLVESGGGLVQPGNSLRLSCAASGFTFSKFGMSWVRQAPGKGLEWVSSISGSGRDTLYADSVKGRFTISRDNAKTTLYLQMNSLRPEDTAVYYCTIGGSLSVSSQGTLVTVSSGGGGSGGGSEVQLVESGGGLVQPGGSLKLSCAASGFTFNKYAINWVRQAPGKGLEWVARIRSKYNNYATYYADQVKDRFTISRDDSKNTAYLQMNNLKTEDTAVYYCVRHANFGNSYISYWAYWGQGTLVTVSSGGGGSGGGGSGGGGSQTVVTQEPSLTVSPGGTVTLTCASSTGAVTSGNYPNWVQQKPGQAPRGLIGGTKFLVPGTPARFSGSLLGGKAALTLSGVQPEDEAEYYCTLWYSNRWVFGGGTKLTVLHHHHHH
T7 sequence (chain, as listed by the source): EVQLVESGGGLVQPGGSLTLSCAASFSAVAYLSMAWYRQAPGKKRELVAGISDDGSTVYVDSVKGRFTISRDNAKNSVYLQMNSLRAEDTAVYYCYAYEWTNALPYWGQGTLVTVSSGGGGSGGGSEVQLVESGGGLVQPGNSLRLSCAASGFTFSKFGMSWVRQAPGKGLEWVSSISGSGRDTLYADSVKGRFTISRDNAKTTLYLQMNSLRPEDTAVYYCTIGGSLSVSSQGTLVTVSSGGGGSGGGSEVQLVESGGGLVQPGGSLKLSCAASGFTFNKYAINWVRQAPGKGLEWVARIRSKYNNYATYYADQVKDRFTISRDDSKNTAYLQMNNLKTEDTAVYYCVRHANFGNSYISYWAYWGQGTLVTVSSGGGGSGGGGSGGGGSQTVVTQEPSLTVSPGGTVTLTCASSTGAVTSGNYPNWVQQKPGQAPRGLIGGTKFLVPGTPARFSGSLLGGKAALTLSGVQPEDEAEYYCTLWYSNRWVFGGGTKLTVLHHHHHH
T9 sequence (chain, as listed by the source): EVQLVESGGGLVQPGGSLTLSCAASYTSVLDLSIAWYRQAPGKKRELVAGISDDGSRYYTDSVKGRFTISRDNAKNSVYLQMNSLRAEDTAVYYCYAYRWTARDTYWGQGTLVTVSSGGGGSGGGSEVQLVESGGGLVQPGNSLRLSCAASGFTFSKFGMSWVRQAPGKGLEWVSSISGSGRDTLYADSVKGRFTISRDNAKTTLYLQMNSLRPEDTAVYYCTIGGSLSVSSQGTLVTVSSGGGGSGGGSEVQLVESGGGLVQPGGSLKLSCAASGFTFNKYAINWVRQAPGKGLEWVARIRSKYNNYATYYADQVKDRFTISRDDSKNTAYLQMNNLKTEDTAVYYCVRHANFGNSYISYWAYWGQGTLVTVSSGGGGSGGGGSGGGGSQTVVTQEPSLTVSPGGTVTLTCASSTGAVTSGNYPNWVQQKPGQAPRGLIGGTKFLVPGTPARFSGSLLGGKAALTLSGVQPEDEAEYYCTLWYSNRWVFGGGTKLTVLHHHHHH
T5 sequence (chain, as listed by the source): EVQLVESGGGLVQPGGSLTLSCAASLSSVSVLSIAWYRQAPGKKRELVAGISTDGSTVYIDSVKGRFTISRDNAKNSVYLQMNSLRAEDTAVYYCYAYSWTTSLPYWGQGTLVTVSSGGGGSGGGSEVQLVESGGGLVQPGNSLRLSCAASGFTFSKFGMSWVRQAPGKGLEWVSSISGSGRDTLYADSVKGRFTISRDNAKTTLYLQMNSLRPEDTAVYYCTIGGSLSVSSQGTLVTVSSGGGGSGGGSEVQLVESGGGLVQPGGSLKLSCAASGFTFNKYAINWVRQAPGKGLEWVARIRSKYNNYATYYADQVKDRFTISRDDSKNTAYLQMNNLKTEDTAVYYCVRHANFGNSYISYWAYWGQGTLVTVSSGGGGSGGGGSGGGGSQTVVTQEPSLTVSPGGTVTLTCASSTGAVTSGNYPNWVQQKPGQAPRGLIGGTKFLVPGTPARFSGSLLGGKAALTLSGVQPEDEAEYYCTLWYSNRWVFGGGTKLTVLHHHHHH
T3 sequence (chain, as listed by the source): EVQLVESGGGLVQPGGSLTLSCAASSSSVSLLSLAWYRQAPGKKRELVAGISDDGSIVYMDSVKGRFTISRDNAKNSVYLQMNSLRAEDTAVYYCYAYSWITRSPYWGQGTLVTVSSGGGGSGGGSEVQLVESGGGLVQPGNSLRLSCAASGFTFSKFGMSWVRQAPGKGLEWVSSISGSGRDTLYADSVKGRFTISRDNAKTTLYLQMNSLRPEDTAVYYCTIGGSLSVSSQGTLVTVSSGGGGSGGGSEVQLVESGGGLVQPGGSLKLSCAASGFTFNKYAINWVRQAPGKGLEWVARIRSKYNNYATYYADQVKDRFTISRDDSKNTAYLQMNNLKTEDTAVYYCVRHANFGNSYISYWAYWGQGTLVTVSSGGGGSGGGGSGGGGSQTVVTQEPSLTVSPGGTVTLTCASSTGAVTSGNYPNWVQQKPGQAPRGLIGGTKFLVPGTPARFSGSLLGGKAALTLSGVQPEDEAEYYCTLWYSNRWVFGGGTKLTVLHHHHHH

B1: cynomolgus monkey DLL3 protein expressed as human IgG1-Fc fusion (Fc fusion, Macaca fascicularis)
chain: AGVFELQIHSFGPGPGGAPRSPYSARGPCRLFFRVCLKPGLSEEAAESPCALGAALSARGPVYTEQPEAPAPDLPLPNGLLQVPFRDAWPGTFSLIIETWREELGDQIGGPAWSLLARVTRRRRLAAGGPWAGDIQRAGAWELRFSYRARCELPAVGTACTRLCRPRSASRCGPGLRPCAPLEDECEAPPVCRAGCSLEHGFCEQPGECRCLEGWTGPLCMVPVSTSSCLGLRGPSSTTTGCLVPGPGPCDGNPCANGGSCSETPGSFECTCPRGFYGLRCEVSGVTCADGPCFNGGLCVGGADPDSAYICHCPPGFQGSNCEKRVDRCSLQPCRNGGLCLDLGHALRCRCRAGFAGPRCEHDLNDCAGRACANGGTCVEGGGAHRCSCALGFGGRDCRERADPCAARPCAHGGRCYAHFSGLVCACAPGYMGARCEFPVHPDGVSALPAAPPGLRPGDPQRYP
notes: also called cyDLL3; not shown: human IgG1 Fc
[1]
  Kd: 5.9 nM
[2]
  Kd: 25 nM
[3]
  Kd: 14.6 nM
[4]
  binding result: no binding (tested: 50 nM)
[5]
  binding result: no binding (tested: 50 nM)
[6]
  Kd: 18.2 nM
[7]
  Kd: 5.5 nM
[8]
  binding result: no binding (tested: 50 nM)
[9]
  binding result: no binding (tested: 50 nM)
[10]
  Kd: 5.5 nM
[11]
  Kd: 2.8 nM
[12]
  Kd: 5.6 nM
[13]
  Kd: 16.4 nM
[14]
  binding result: no binding (tested: 50 nM)
[15]
  Kd: 6.8 nM
[16]
  binding result: no binding (tested: 50 nM)
[17]
  Kd: 10.7 nM
[18]
  Kd: 30.8 nM
[19]
  Kd: 11.3 nM
[20]
  binding result: no binding (tested: 50 nM)
[21]
  Kd: 17.5 nM
[22]
  Kd: 9.6 nM
[23]
  binding result: no binding (tested: 50 nM)
[24]
  Kd: 11.7 nM
[25]
  Kd: 8 nM
[26]
  Kd: 5.5 nM
[27]
  binding result: no binding (tested: 50 nM)
[28]
  Kd: 8.2 nM
[29]
  binding result: no binding (tested: 50 nM)
[30]
  Kd: 86.2 nM
[31]
  Kd: 42.4 nM
[32]
  Kd: 7 nM
[33]
  Kd: 17.9 nM
[34]
  Kd: 27.9 nM

B2: cynomolgus DLL3 protein (Example 6) (ligand)
chain: B1 chain
notes: also called cyDLL3
[35]
  Kd: 11 nM
[36]
  Kd: 1.4 nM
[37]
  Kd: 1.7 nM
[38]
  Kd: 3 nM
[39]
  Kd: 1.5 nM
[40]
  Kd: 3.4 nM
[41]
  Kd: 1.6 nM
[42]
  Kd: 1.9 nM
[43]
  Kd: 2 nM
[44]
  Kd: 1.6 nM

B3: human DLL3 protein (Example 6) (ligand)
chain: AGVFELQIHSFGPGPGPGAPRSPCSARLPCRLFFRVCLKPGLSEEAAESPCALGAALSARGPVYTEQPGAPAPDLPLPDGLLQVPFRDAWPGTFSFIIETWREELGDQIGGPAWSLLARVAGRRRLAAGGPWARDIQRAGAWELRFSYRARCEPPAVGTACTRLCRPRSAPSRCGPGLRPCAPLEDECEAPLVCRAGCSPEHGFCEQPGECRCLEGWTGPLCTVPVSTSSCLSPRGPSSATTGCLVPGPGPCDGNPCANGGSCSETPRSFECTCPRGFYGLRCEVSGVTCADGPCFNGGLCVGGADPDSAYICHCPPGFQGSNCEKRVDRCSLQPCRNGGLCLDLGHALRCRCRAGFAGPRCEHDLDDCAGRACANGGTCVEGGGAHRCSCALGFGGRDCRERADPCAARPCAHGGRCYAHFSGLVCACAPGYMGARCEFPVHPDGASALPAAPPGLRPGDPQRYL
notes: also called huDLL3
[35]
  Kd: 13.5 nM
[36]
  Kd: 0.9 nM
[37]
  Kd: 0.9 nM
[38]
  Kd: 2.2 nM
[39]
  Kd: 1 nM
[40]
  Kd: 2 nM
[41]
  Kd: 0.9 nM
[42]
  Kd: 1.1 nM
[43]
  Kd: 1.4 nM
[44]
  Kd: 1.2 nM
